This series can be described thus: yeast display, Sf9 membrane polyspecificity reagent, FACS + sequencing; frameworks hold sequencing errors. An outline of the steps:
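Synthetic nanobody libraries on Saccharomyces cerevisiae BJ5465 were galactose-induced for 36–48 hours, stained 1 hour at 4 °C with 10% biotinylated, detergent-solubilized Sf9 membrane reagent and enriched on streptavidin microbeads. FACS then separated cells into low and high (top ~1%) gates by anti-HA (expression) and streptavidin (reagent binding) fluorescence. Genes were colony-PCR amplified, MiSeq 2 × 250 sequenced and CDR-length filtered. A clone's polyreactivity label is that of its gate of origin.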
“QVQLVESGGGLVQAGGSLRLSCAASGFIFVRNTRGWYRQAPGKERELVAAISSRGGRTYYADSVKGRFTISRDNAKNTVYLQMNSLKPEDTAVYYCAKAHSVNQRYDYWGQGTQVTVSS”: the “polyreactivity (PSR sort gate)” value is reported as “high polyreactivity”.

For the sequence “QVQLVESGGGLVQAGGSLRLSCAASGFIFVRYAMGWYRQAPGKEREFVASITRSDGSTYADSVKGRFTISRDNAKNTVYIQMNSLKPEDTAVYYCNKDNHDVELPVEFEYWGQGTQVTVSS”, the “polyreactivity (PSR sort gate)” value was “high polyreactivity”.

Turning to “QVQLVESGGGLVQAGGSLRLSCAASGFIFVRYAMGWYRQAPGKERELVAAISKSGGRTYYADSVKGRFTISRDNAKNTVYLQMNSLKPEDTAVYYCAAYYYVGRVVSFDYWGQGTQVTVSS”, the “polyreactivity (PSR sort gate)” value is “high polyreactivity”.

Turning to “QVQLVESGGGLVQAGGSLRLSCAASGFIFVRYAMGWYRQAPGKERELVAAISSSGGTTNYADSVKGRFTISRDNAKHTVYLQMNSLKPEDTAVYYCNADYYWFFDFFDYDYWGQGTQVTVSS”, the “polyreactivity (PSR sort gate)” value is given as “low polyreactivity”.

As to “QVQLVESGGGLVQAGGSLRLSCAASGFIFVVNAMGWYRQAPGKEREFVAVISSSTGSTYYADSVKGRFTISRDNAKNTVYLQMNSLKPEDTAVYYCAAASRRRRPLNRMDYWGQGTQVTVSS”, the “polyreactivity (PSR sort gate)” value is reported as “low polyreactivity”.

As for “QVQLVESGGGLVQAGGSLRLSCAASGFIFVYYAMGWYRQAPGKERELVAAISKRGGNTYYADSVKGRFTISRDNAKNTVYLQMNSLKPEDTAVYYCAAGFTTRRGEYNYWGQGTQVTVSS”, the “polyreactivity (PSR sort gate)” value is “high polyreactivity”.

Regarding “QVQLVESGGGLVQAGGSLRLSCAASGFIFWFNALGWYRQAPGKERELVATISWSDTSTYYADSVKGRFTISRDNAKNTVYLQMNSLKPEDTAVYYCATDGRETWLPEYYWGQGTQVTVSS”, the “polyreactivity (PSR sort gate)” value is reported as “low polyreactivity”.

Regarding “QVQLVESGGGLVQAGGSLRLSCAASGFIFWLYAMGWYRKAPVKESELVAAISWSDGSTYYADSVKGRFTISRDNAKNSVYLQMNCLKREDTAVYYCNTVRVHGFPIDRIYDYWGQGTQVTVSS”, the “polyreactivity (PSR sort gate)” value is reported as “high polyreactivity”.

As for “QVQLVESGGGLVQAGGSLRLSCAASGFIFWLYAMGWYRQAPGKERELVAAISRSGGRTYYADSVKGRFTISRDNAKNTVYLQMNSLKPEDTAVYYCAKDDNYKSYPYDYWGQGTQVTVSS”, the “polyreactivity (PSR sort gate)” value is listed as “high polyreactivity”.

Consider “QVQLVESGGGLVQAGGSLRLSCAASGFIFWRNAMGWYRQAPGKERELVAAITSGDRTNYADSVKGRFTISRDNAKNTVYLQMNSLKPEDTAVYYCNARRLRLVSYDYCGQGTQVTVSS”, for which the “polyreactivity (PSR sort gate)” value is given as “low polyreactivity”.

As to “QVQLVESGGGLVQAGGSLRLSCAASGFIFWSYAMGWYIQAPGKERELVAAINTSGDSTYYADSVKGRFTISRDNAKNTVYLQMNSLKPEDTAVYYCAAKSSTRGDYWGQGTQVTVSS”, the “polyreactivity (PSR sort gate)” value is “low polyreactivity”.

In the case of “QVQLVESGGGLVQAGGSLRLSCAASGFIFWWYAMGWYRQAPGKERELVATITASVGSTNYADSVKGRFTISRDNAKNTVYLQMNSLKPEDTAVYYCASDIIGAIRDWDHTRMDYWGQGTQVNVSS”, the “polyreactivity (PSR sort gate)” value is on record as “low polyreactivity”.

For “QVQLVESGGGLVQAGGSLRLSCAASGFIFWYNAMGWYRQAPGKERELVADNTSGGSTTYADSVKGRFTISRDNAKNTVYLQMNSLKPEDTAVYYCAASIRRYWLHPGDYWGQGTQVTVSS”, the “polyreactivity (PSR sort gate)” value was “low polyreactivity”.

Regarding “QVQLVESGGGLVQAGGSLRLSCAASGFIFWYYAIGWYRQAPGKERELVADISSGGSTNYADSVKGRFTISRDNAKNTVYLQMNSLKPEDTAVYYCADDTFRRDDYWGQGTQVTVSS”, the “polyreactivity (PSR sort gate)” value is recorded as “low polyreactivity”.

As for “QVQLVESGGGLVQAGGSLRLSCAASGFIFWYYAMGWYRQAPGKERELVAAISSRGGSTYYADSVKGRFTISRDNAKNTVYLQMNSLKPEDTAVYYCAATGYTGYSRYYYWGQGTQVTVSS”, the “polyreactivity (PSR sort gate)” value was “high polyreactivity”.

Take “QVQLVESGGGLVQAGGSLRLSCAASGFIFWYYDMGWYRQAPGKERELVAAISDRGGSTSYADSVKGRFTISRDNAKNTVYLQMNSLKPEDTAVYSCAVDRSLSPFAYDYWGQGTQVTVSS”: the “polyreactivity (PSR sort gate)” value was “low polyreactivity”.

For “QVQLVESGGGLVQAGGSLRLSCAASGFIFYDYALGWYRQAPGKERELVAAITQRGGSTYYADSVKGRFPISRDNAKKTVYLQMTSLKPVDTAVYSCAAKDAPYWFPITHVQPVDMDYWGQGTQVTVSS”, the “polyreactivity (PSR sort gate)” value was “high polyreactivity”.

Consider “QVQLVESGGGLVQAGGSLRLSCAASGFIFYDYAMGWYRQAPGKERELVAVITRGGSTYYADSVKGRFTISRDNAKNTVYLQMNSLKPEDTAVYYCAAYWFTPGFTFDYWGQGTQVTVSS”, for which the “polyreactivity (PSR sort gate)” value is “low polyreactivity”.

On to “QVQLVESGGGLVQAGGSLRLSCAASGFIFYEYAMGWYRQSPGKERELVAGISWSGDSTYYADSVKGRFTISRDNAKNTVYLQMNRLKPEDTAVYYCAADPYYQGYDYWGQGTQVTVSS”, for which the “polyreactivity (PSR sort gate)” value was “low polyreactivity”.

As for “QVQLVESGGGLVQAGGSLRLSCAASGFIFYGYAKGWYRQAPGKERELVAGISTGGSKNYADSVKGRFTISRDNAKNTVYVQMNSLKPEDTAVDYCAVVDVEEHVGHWGQGTQVTVSS”, the “polyreactivity (PSR sort gate)” value is given as “low polyreactivity”.

Regarding “QVQLVESGGGLVQAGGSLRLSCAASGFIFYGYAMGWYRQAPGKERELVAGISTVGSTNYADSVKGRFTISRDNAKNTVYLQMNSLKPEDSAVYYCAVVDVEDHVGHWGQGTQVTVSS”, the “polyreactivity (PSR sort gate)” value is “low polyreactivity”.

Take “QVQLVESGGGLVQAGGSLRLSCAASGFIFYHNAMGWYRQAPGKERELVAVISSGGSTYYADSVKGRFTISRDNAKNTVYLQMNSLKPEDTAVYYCAALYYGWSGSYAMDYWGQGTQVTVSS”: the “polyreactivity (PSR sort gate)” value is “high polyreactivity”.

Consider “QVQLVESGGGLVQAGGSLRLSCAASGFIFYHYAMGRYRQAPGKERELVAAISWNGGRTYYADSVKGRFTISRDNAKNTVYLQMNSLKPEDTAVYYCAAYWTRVERVYWGQGTQVTVSS”, for which the “polyreactivity (PSR sort gate)” value is “high polyreactivity”.

In the case of “QVQLVESGGGLVQAGGSLRLSCAASGFIFYHYAMGWYRQAPGKRRELVAAISYSGGSTYYADSVKGRFTISRDNGKNTVYLQMNSLKPEDPAVYYCNAVYHTRLYTLSTFDYWGQGTQVTVSS”, the “polyreactivity (PSR sort gate)” value was “high polyreactivity”.

For “QVQLVESGGGLVQAGGSLRLSCAASGFIFYIYPMGWYRQAPGKERELLAAISWNGGSTYYADSVKGRFTISRDNAKNTVYLQMNSLNPEDTAVFYCATLARYRYGTGRFDYWGQGTQVTVSS”, the “polyreactivity (PSR sort gate)” value was “high polyreactivity”.

“QVQLVESGGGLVQAGGSLRLSCAASGFIFYKYAMGWYRQAPGKEREFVAAISSRGSRTYYADSVKGRFTISRDNAKNTVYLQMNSLKPEDTAVYYCAAGYWARLYDYDYWGQGTQVTVSS”: the “polyreactivity (PSR sort gate)” value is reported as “high polyreactivity”.

“QVQLVESGGGLVQAGGSLRLSCAASGFIFYKYAMGWYRQAPGKERELVAAITARGGSTYYADSVKGRFTISRDNAKNTVYLQMNSLKPEDTAVYYCAADTYFSGAGGQAYQYDYWGQGTQVTVSS”: the “polyreactivity (PSR sort gate)” value is listed as “high polyreactivity”.

Turning to “QVQLVESGGGLVQAGGSLRLSCAASGFIFYKYAMGWYRQAPGKERELVAAITWRGGRTNYADSVKGRFTISRDNAKNTVYLQMNSLKPEDTAVYYCAADPWYSSYYYSYEYWGQGTQVTVSS”, the “polyreactivity (PSR sort gate)” value was “high polyreactivity”.

As for “QVQLVESGGGLVQAGGSLRLSCAASGFIFYKYAMGWYRQAPGKERELVAGITWNVGSTYYADSVKGRFTISRDNAKNTVYLQMNSMKPEDTAVYYCAARHSYLGGTISLLYDYWGQGTQVTVSS”, the “polyreactivity (PSR sort gate)” value was “low polyreactivity”.

“QVQLVESGGGLVQAGGSLRLSCAASGFIFYLYAMGWYRQAPGKERELVASINVSGASTRYADSVKGRFTISRDNAKNTDYLQMNSLKPEDTAVYYCAAPSRYDYWGQGTQVTVSS”: the “polyreactivity (PSR sort gate)” value is on record as “low polyreactivity”.

With “QVQLVESGGGLVQAGGSLRLSCAASGFIFYLYTMGWYRQAPGKERELVAAITGGGGTYYADSVKGRFTISRDNAKNTVYLQMNSLKPEDTAVYYCAAEYYLYLWDEYDYWGQGTQVTVSS”, the “polyreactivity (PSR sort gate)” value is “high polyreactivity”.

On to “QVQLVESGGGLVQAGGSLRLSCAASGFIFYPYAMAWYRQAPGKERELVAVITSGGRTYYADSVKGRFTISRDNAKNTVYLQMNSLKPEDTAVYYCAARYGRIHWKANWPEYGYWGQGTQVTVSS”, for which the “polyreactivity (PSR sort gate)” value was “low polyreactivity”.

On to “QVQLVESGGGLVQAGGSLRLSCAASGFIFYPYAMGWYRQAPGKERELVAAITWSGSRTYYADSVKGRFTISRDNAKHTVYLQMNSLKPEDTAVYYCNKYPQPTAYDYWGQGTQVTVSS”, for which the “polyreactivity (PSR sort gate)” value is “high polyreactivity”.

In the case of “QVQLVESGGGLVQAGGSLRLSCAASGFIFYRNTMGWYRQAPGKEREFVAAIRWRGGSTYYADSVKGRFTISRDNAKNTVYLQMNSLKPEDTAVYYCAAGTPWSVEGSYVTYPWNRYYYWGQGTQVTVSS”, the “polyreactivity (PSR sort gate)” value is “high polyreactivity”.

Regarding “QVQLVESGGGLVQAGGSLRLSCAASGFIFYRYAMGWYRLAPGKERELVAAISSSGGSTYYADSVKGRFTISRDYAKYSVYLQMNSLKPEDTAVYYCAVDYWGQGTQVTVSS”, the “polyreactivity (PSR sort gate)” value is “high polyreactivity”.

Consider “QVQLVESGGGLVQAGGSLRLSCAASGFIFYRYAMGWYRQAPGKEREFVAAITRSAGGTYYADSVKGRFTISRDNEKNTVYLQMNSLKPEDTAVYYCAAVYRSGSRYYLGWYNYWGQGTQVTVSS”, for which the “polyreactivity (PSR sort gate)” value was “high polyreactivity”.

For “QVQLVESGGGLVQAGGSLRLSCAASGFIFYRYAMGWYRQAPGKERELVAAINWSGGGTYYADSVKGRFTISRDNAKNTVYLQMNSLKPEDTAVYYCAAGRSFRGSYWYEYWGQGTQVTVSS”, the “polyreactivity (PSR sort gate)” value is “high polyreactivity”.

With “QVQLVESGGGLVQAGGSLRLSCAASGFIFYRYAMGWYRQAPGKERELVAAISSSGGSTYYADSVKGRFTISRDNAKNTVYLQMNSLKPEDTAVYYCAAEPSGKRSKFYYLGQGTQVTVSS”, the “polyreactivity (PSR sort gate)” value was “high polyreactivity”.

For the sequence “QVQLVESGGGLVQAGGSLRLSCAASGFIFYRYAMGWYRQAPGKERELVAAITGSGARTYYADSVKGRFTISRDNAKNTVYLQMNSLKPEDTAVYYCAARYILSKYGSGVRYNYWGQGTQVTVSS”, the “polyreactivity (PSR sort gate)” value is on record as “high polyreactivity”.

“QVQLVESGGGLVQAGGSLRLSCAASGFIFYSNAMGWYRQAPGKERELVAGISRGGSTYYADSVKGRFTISRDNAKNTVYLQMNRLKPEDTAVYYCAAKISLGDDYWGQGTQVTVSS”: the “polyreactivity (PSR sort gate)” value is listed as “low polyreactivity”.

With “QVQLVESGGGLVQAGGSLRLSCAASGFIFYSNPMGWYRQAPGKERELVAAITSGGSTYYADSVKGRFTISRDNAKNTVYLQMNSLKPEETAVYYCAAVVRVYFRGFTSYDYWGQGTQVTVSS”, the “polyreactivity (PSR sort gate)” value is on record as “high polyreactivity”.

Source of the values: the nanobody polyreactivity screen of Harvey et al. (2022).
